Test results: patent publication US9611285B2, “Fucosyltransferases and their applications” (Jennewein Biotechnologie GmbH, priority 2011, dated 2017)

Experiments:
[1] = system: alpha-1,2-fucosyltransferase His6-Propeptide-WbgL; assay: Acceptor substrate spectrum by HPAEC-PAD activity assay; assay type: biochemical, Escherichia coli O126; conditions: acceptor substrate instead of 5 mM lactose; 2 mM GDP-β-L-fucose; relative to lactose
Experimental: (§1) Enzyme activity was also determined by HPAEC-PAD analysis for detection of 2′-fucosyllactose. The assay solution contained 2 mM GDP-β-L-fucose, 5 mM lactose, 50 mM Tris-HCl pH 7.6 with 2 mM MnCl2, 1 mM DTT, 1 U alkaline phosphatase in a total volume of 175 μl and was incubated at 30° C. after the addition of […] and purified enzyme solution. The reaction was stopped by heating for 5 min at 95° C. at different time points where the conversion rate was linear. The centrifuged samples were analysed by Dionex HPAEC-PAD (Dionex Corporation, Sunnyvale, Calif., USA) on CarboPac PA1 column using Chromeleon™ 6.40 Software. The elution was carried out with 50 mM NaOH at 30° C. (flow rate 1 mL/min, 50 μL injection volume). The concentration of the generated trisaccharide 2′-fucosyllactose was determined by a standard calibration curve with commercially available 2′-fucosyllactose and used for subsequent calculation of enzyme activity (see FIG. 6).
(§2) For both, HPAEC-PAD and photometric assays, 1 U of His6-Propeptide-WbgL is the amount of enzyme which produces 1 μmol product (GDP or 2′-fucosyllactose) per minute under standard assay conditions.
The substrate spectrum of recombinant His6-Propeptide-WbgL was analysed by HPAEC-PAD according to activity assay described above. Instead of 5 mM lactose different acceptor substrates were tested to determine the relative activity compared to lactose.

[2] = system: C[C@@H]1O[C@H](OP(=O)(O)OP(=O)(O)OC[C@H]2O[C@@H](n3cnc4c(=O)[nH]c(N)nc43)[C@H](O)[C@@H]2O)[C@@H](O)[C@H](O)[C@@H]1O; assay: Kinetic analysis by photometric pyruvate kinase/lactate dehydrogenase assay (initial rates, Michaelis-Menten); assay type: biochemical, Escherichia coli O126; conditions: other: lactose varied 0.05 to 40 mM at 2 mM GDP-beta-L-fucose, GDP-beta-L-fucose varied 0.02 to 4 mM at 10 mM lactose, 30° C., pH 7.6
Experimental: (§3) The photometric assay was performed using the pyruvate kinase/lactate dehydrogenase system for the detection of released GDP (Barratt, D. H., L. Barber, et al. (2001). “Multiple, distinct isoforms of sucrose synthase in pea.” Plant Physiology 127(2): 655-664.). The reaction mixture for the microtiter plate assay contained 50 mM Tris-HCl pH 7.6, 2 mM GDP-beta-L-fucose, 5 mM Lactose, 1 mM phosphoenolpyruvate, 1 mM DTT, 0.25 mM NADH, 2 mM MnCl2, 5 U pyruvate kinase, and 5 U lactate dehydrogenase in a total volume of 250 μl. The reaction was started by addition of 100 μl enzyme solution and followed at 340 nm at 30° C. Control experiments for the detection of side activities were done without acceptor substrate lactose (see FIG. 5).
as §2
(§4) The kinetic constants of His6-Propeptide-WbgL for the acceptor substrate lactose and the donor substrate GDP-beta-L-fucose were derived from initial rate analysis at a variable substrate concentrations using the photometric assay described above. GDP-beta-L-fucose was varied from 0.02 mM to 4 mM at a constant concentration of 10 mM lactose and lactose was altered from 0.05 to 40 mM at a constant concentration of 2 mM GDP-beta-L-fucose. All data were determined by non linear-regression analysis according to the Michaelis-Menten equation using the Sigma Plot 10 software (SPSS Science Software GmbH, Erkrath, Germany).

[3] = system: OC[C@H]1O[C@@H](O[C@H]2[C@H](O)[C@@H](O)C(O)O[C@@H]2CO)[C@H](O)[C@@H](O)[C@H]1O; assay: as above; assay type: biochemical, Escherichia coli O126; conditions: other: lactose varied 0.05 to 40 mM at 2 mM GDP-beta-L-fucose, GDP-beta-L-fucose varied 0.02 to 4 mM at 10 mM lactose, 30° C., pH 7.6
Experimental: as §3, §2, §4

[4] = system: E. coli BL21(DE3) ΔlacZ pDEST14-fkp pCOLA-lacY-fucP; assay: Production of 2'-fucosyllactose in recombinant E. coli expressing a fucosyltransferase (HPLC); assay type: cell-based, Escherichia coli
Experimental: Cells E. coli BL21(DE3) ΔlacZ pDEST14-fkp pCOLA-lacY-fucP were transformed with pACYCDuet-1 carrying the appropriate fucosyltransferase gene. Colonies were grown on 2YT plates with the appropriate antibiotics. 5 ml over night cultures (2YT with antibiotics) were grown of each strain and from this cultures 15 ml mineral medium each were inoculated to 1%. Cells were grown using glycerol as carbon source and at OD600=0.5 were induced with 0.1 mM IPTG and 40 mM lactose and 30 mM fucose were added. Cultures were incubated at 30° C. and 120 rpm. Production of 2′-fucosyllactose was monitored HPLC analysis. The comparison of the amount of 2′-fucosyllactose (2′-FL) produced by expression of FucT2 from Helicobacter pylori compared to the expression of WbgL from Escherichia coli O126 is shown in the following table 1: […]

[5] = pH optimum and metal ion dependency of the enzyme (HPAEC-PAD assay); assay type: biochemical
Experimental: as §1
To study the optimal pH value for the activity of recombinant His6-Propeptide-WbgL, assays were performed at different pH values of a 50 mM Tris-HCl buffer ranging from pH 6.8 to 8.4. Optimal pH value was 7.6 (see. FIG. 8). Addition of metal ions Mn^2+ to standard assays allowed to investigate the metal ion dependency. All samples were analyzed HAPAEC-PAD as described above.

For OC[C@H]1O[C@@H](O[C@@H]2[C@@H](CO)OC(O)(CO)[C@H]2O)[C@H](O)[C@@H](O)[C@H]1O (mixture of isomers) [Lactulose], the Relative activity [1] was 124%.

CC(=O)N[C@H]1C(O)O[C@H](CO)[C@H](O)[C@@H]1O (stereo partly drawn) [D-GalNAc] gave a Relative activity [1] of 0%.

For N[C@H]1C(O)O[C@H](CO)[C@H](O)[C@@H]1O (stereo partly drawn) [D-GalNH2], the Relative activity [1] was 0%.

With O=C[C@H](O)[C@@H](O)[C@@H](O)[C@H](O)CO [D-Galactose] the Relative activity [1] was 71%.

For CC(=O)NC1C(O)OC(CO)C(OC2OC(CO)C(O)C(O)C2NC(C)=O)C1O (stereo not shown) [LacDiNAc], the Relative activity [1] was 0%.

In the case of CC(=O)N[C@H]1C(O)O[C@H](CO)[C@@H](O[C@@H]2O[C@H](CO)[C@H](O)[C@H](O)[C@H]2O)[C@@H]1O (stereo partly shown) [LacNAc Typ II], the Relative activity [1] is reported as 95%.

CC(=O)N[C@@H]1[C@@H](O[C@@H]2O[C@H](CO)[C@H](O)[C@H](O)[C@H]2O)[C@H](O)[C@@H](CO)O[C@@H]1O [LacNAc Typ I] gave a Relative activity [1] of 28%.

Molecule OC[C@H]1O[C@@H](O[C@H]2[C@H](O)[C@@H](O)C(O)O[C@@H]2CO)[C@H](O)[C@@H](O)[C@H]1O (stereo partly shown) [Lactose] has a Relative activity [1] of 100%.

For OC[C@H]1O[C@@H](O[C@H]2[C@H](O)[C@@H](O)[C@H](OCc3ccccc3)O[C@@H]2CO)[C@H](O)[C@@H](O)[C@H]1O [β-Benzyl-Lactose], the Relative activity [1] was 50%.

Molecule “recombinant alpha-1,2-fucosyltransferase His6-Propeptide-WbgL (Escherichia coli)” has a Km [2] of 270 µM, a Vmax [2] of 0.167 µmol/min/mg and a Vmax/Km [2] of 618 µL/min/mg. For the same molecule, the Km [3] was 5300 µM, the Vmax [3] was 0.17 µmol/min/mg and the Vmax/Km [3] was 32 µL/min/mg.

B1: WbgL: alpha-1,2-fucosyltransferase WbgL from E. coli O126 (SEQ ID No. 2), expressed from pACYC-wbgL (protein, listed as Escherichia coli)
chain: MSIIRLQGGLGNQLFQFSFGYALSKINGTPLYFDISHYAENDDHGGYRLNNLQIPEEYLQYYTPKINNIYKLLVRGSRLYPDIFLFLGFCNEFHAYGYDFEYIAQKWKSKKYIGYWQSEHFFHKHILDLKEFFIPKNVSEQANLLAAKILESQSSLSIHIRRGDYIKNKTATLTHGVCSLEYYKKALNKIRDLAMIRDVFIFSDDIFWCKENIETLLSKKYNIYYSEDLSQEEDLWLMSLANHHIIANSSFSWWGAYLGSSASQIVIYPTPWYDITPKNTYIPIVNHWINVDKHSSC
In the case of B1, the “Yield 2′-FL” value ([4]; 0.1 mM IPTG, 40 mM lactose, 30 mM fucose, 30° C., 120 rpm) is reported as 4.05 mM and the “Amount of fucosylated product 2′-fucosyllactose compared to FucT2 from Helicobacter pylori” value ([4]; same cultures as Table 3) is reported as “significantly higher”.

B2: His6-Propeptide-WbgL: recombinant WbgL with N-terminal His-Tag and S. hyicus lipase propeptide (513 amino acids), expressed from pETHIS6PropwbgL in E. coli (protein)
chain: NDSTTQTTTPLEVAQTSQQETHTHQTPVTSLHTATPEHVDDSKEATPLPEKAESPKTEVTVQPSSHTQEVPALHKKTQQQPAYKDKTVPESTIASKSVESNKATENEMSPVEHHASNVEKREDRLETNETTPPSVDREFSHKIINNTHVNPKTDGQTNVNVDTKTIDTVSPKDDRIDTAQPKQVDVPKENTTAQNKFTSQASDKKPTMSIIRLQGGLGNQLFQFSFGYALSKINGTPLYFDISHYAENDDHGGYRLNNLQIPEEYLQYYTPKINNIYKLLVRGSRLYPDIFLFLGFCNEFHAYGYDFEYIAQKWKSKKYIGYWQSEHFFHKHILDLKEFFIPKNVSEQANLLAAKILESQSSLSIHIRRGDYIKNKTATLTHGVCSLEYYKKALNKIRDLAMIRDVFIFSDDIFWCKENIETLLSKKYNIYYSEDLSQEEDLWLMSLANHHIIANSSFSWWGAYLGSSASQIVIYPTPWYDITPKNTYIPIVNHWINVDKHSSC
modifications: left off: small tags and cut ends
notes: recombinant WbgL with N-terminal His-Tag and S. hyicus lipase propeptide (513 amino acids), expressed from pETHIS6PropwbgL in E. coli
With B2 the “Optimal pH value” ([5]; 50 mM Tris-HCl buffer, pH 6.8 to 8.4) was 7.6 and the “Metal ion dependency (Mn^2+)” value ([5]; addition of Mn^2+ to standard assays) was “not dependent on Mn^2+ ions”.
